T1: FUN DNA-binding domain (bZIP) (Lotus japonicus)
T1 chain: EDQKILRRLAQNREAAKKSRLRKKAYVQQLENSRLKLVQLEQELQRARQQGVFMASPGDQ

B1: FUN-GFP (FUN fused to green fluorescent protein) (other)
chain: MQGFKTAQGNSHLYCHPSSFLLRGDDTSRNHTRFSDLGELQHSSNIFQQDDAVDLSSSNLPCSMYSVKSCNVVGGGSNMQYGTLNTNLGSAEIVSTGAGCLETGQQLMYHKEISMATMPMGNGHVENWADSSGMADNSQQTDDTSTDVDTDDKIQSNRDKRGTHMVVHSRDQTKSKPEDQKILRRLAQNREAAKKSRLRKKAYVQQLENSRLKLVQLEQELQRARQQGVFMASPGDQSHLAVGGANGASAFDMEYAHWVDEHQRLLTDLRSALNSQMGDNELHLLVDGVMAHYDELFRLKSLGAKADVFHMHSGLWKTPAERCFMWLGGFRSTELLKIVKNHLEPLTEPQLMGIDNLLRCAQQGEDALTQGMEALQQALVDTLSSTSLGPAGAGNVADYMGQMAIAMGKLATLESFLHSADLVKQQTLQQLQRILTTRQMARALLVRNDYISRLRALSSLWLARPRESSVMSSLPPSNIE
notes: Expressed inside plant cells, where it is nuclear (N. benthamiana leaves, Lotus hairy roots), not on the cell surface; also called pro35S:FUN-GFP; proUbi:FUN-GFP; not shown: eGFP fused to the FUN CDS
B2: NRT2.1 P1 (dsDNA)
DNA 1: ACAAGTAGCTTATGACGTACGACATATAGT
DNA 2: ACTATATGTCGTACGTCATAAGCTACTTGT
B3: NRT2.1 P4 (dsDNA)
DNA 1: AGATTTAAGTTGACGTATTAATGACAATGA
DNA 2: TCATTGTCATTAATACGTCAACTTAAATCT
B4: HO1 P1 (dsDNA)
DNA 1: TGTAATAACTTGTGAGCGAAGCAGGGATCC
DNA 2: GGATCCCTGCTTCGCTCACAAGTTATTACA
B5: HO1 P2 (dsDNA)
DNA 1: TCGAGCCTGCCTTGAGCTTGTCTTCTCCAT
DNA 2: ATGGAGAAGACAAGCTCAAGGCAGGCTCGA
B6: NAC094 P1 (dsDNA)
DNA 1: AGGAGAGGTTTGTGAGCATCAGCAAAGTGT
DNA 2: ACACTTTGCTGATGCTCACAAACCTCTCCT
B7: NRT3.1 P1 (dsDNA)
DNA 1: CGTTCATTAATATGACATCAGAATTTCTCT
DNA 2: AGAGAAATTCTGATGTCATATTAATGAACG
B8: NRT3.1 P2 (dsDNA)
DNA 1: GGTTTTTATTTTTGACCTCAGAGGGGATCG
DNA 2: CGATCCCCTCTGAGGTCAAAAATAAAAACC
B9: NRT3.1 P3 (dsDNA)
DNA 1: AGACCTATTTTCTGACTCAATGTAGAGGGT
DNA 2: ACCCTCTACATTGAGTCAGAAAATAGGTCT
B10: AS1 P1 (dsDNA)
DNA 1: CATGTGGGCTTTTGACGAAGGTTCAAGTAG
DNA 2: CTACTTGAACCTTCGTCAAAAGCCCACATG

Assays:
[1] = molecular target: the molecule itself; assay: confocal imaging of FUN-GFP in N. benthamiana leaves infiltrated with 500 µM ZnCl2
[2] = molecular target: T1, FUN DNA-binding domain (bZIP); assay: EMSA; 25 mM Tris pH 8.0, 80 mM NaCl, 35 mM KCl, 5 mM MgCl2, 37 C; details: chain copies: 2; label: 5' 6-FAM
Description: (§1) The purified FUN DNA binding domain (residues 178-237) was incubated with the probes at 37° C. for 60 min in EMSA buffer (25 mM Tris-HCl pH8.0, 80 mM NaCl, 35 mM KCl, 5 mM MgCl₂). After incubation, the reaction mixture was electrophoresed in 6% native polyacrylamide gel and then labelled DNA was detected with the Typhoon scanner (Fujifilm). Probes without 6-FAM-label served as competitors, while probes with mutation in the core binding sites (TGACG) served as mutants.
(§2) The promoter region of Nrt2.1 had four putative FBSs (P1-P4), the promoter region of Ho1 had two FBSs (P1 and P2), the promoter region of NAC094 had one FBS (P1), the promoter region of Nrt3.1 had three FBSs (P1, P2, and P3), and the promoter region of AS1 had one FBS (P1), all of which are illustrated in FIG. 2C. EMSA was conducted to test whether the FUN DNA-binding domain bound probes representing the FBSs.

[3] = molecular target: T1, FUN DNA-binding domain (bZIP); assay: EMSA; same buffer, 37 C; details: chain copies: 2; label: 5' 6-FAM
Description: as §1, §2

[4] = molecular target: T1, FUN DNA-binding domain (bZIP); assay: EMSA; same buffer, 37 C; printed reverse strand identical to forward; details: chain copies: 2; label: 5' 6-FAM
Description: as §1, §2

Row | Binder | binding result [3] | also measured
1 | B1 |  | binding result [1]: binds
2 | B2 |  | binding result [2]: binds
3 | B3 | binds | 
4 | B4 | binds | 
5 | B5 | binds | 
6 | B6 | binds | 
7 | B7 | binds | 
8 | B8 | binds | 
9 | B9 | binds | 
10 | B10 |  | binding result [4]: binds
